Experimental data: article PMC3919030

Legend:
Conditions in all cases: remark: other sources report otherwise
[1] = target: T1, S. cerevisiae Vps4p (wild type) (S. cerevisiae), P52917; assay: SEC
T1 chain: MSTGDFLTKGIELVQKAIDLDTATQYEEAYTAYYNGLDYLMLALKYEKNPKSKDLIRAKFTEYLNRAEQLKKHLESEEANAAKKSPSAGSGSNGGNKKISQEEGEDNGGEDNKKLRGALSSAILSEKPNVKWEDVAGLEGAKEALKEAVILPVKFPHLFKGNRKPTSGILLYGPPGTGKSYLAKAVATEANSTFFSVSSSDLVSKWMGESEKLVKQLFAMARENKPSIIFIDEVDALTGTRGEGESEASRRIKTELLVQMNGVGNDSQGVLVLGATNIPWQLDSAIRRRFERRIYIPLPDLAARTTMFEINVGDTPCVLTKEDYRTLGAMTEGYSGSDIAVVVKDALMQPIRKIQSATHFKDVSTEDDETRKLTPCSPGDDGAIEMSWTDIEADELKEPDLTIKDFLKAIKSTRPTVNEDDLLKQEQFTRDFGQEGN

[2] = target: T1, S. cerevisiae Vps4p (wild type) (S. …); assay: SEC
[3] = target: T1, S. cerevisiae Vps4p (wild type) (S. …); assay: SEC
[4] = target: T1, S. cerevisiae Vps4p (wild type) (S. …); assay: SEC
[5] = target: T1, S. cerevisiae Vps4p (wild type) (S. …); assay: AUC
[6] = target: T1, S. cerevisiae Vps4p (wild type) (S. …); assay: AUC

Measured: stoichiometry N

B1: S. cerevisiae Vps4p (wild type), P52917 1-437 (enzyme)
chain: MSTGDFLTKGIELVQKAIDLDTATQYEEAYTAYYNGLDYLMLALKYEKNPKSKDLIRAKFTEYLNRAEQLKKHLESEEANAAKKSPSAGSGSNGGNKKISQEEGEDNGGEDNKKLRGALSSAILSEKPNVKWEDVAGLEGAKEALKEAVILPVKFPHLFKGNRKPTSGILLYGPPGTGKSYLAKAVATEANSTFFSVSSSDLVSKWMGESEKLVKQLFAMARENKPSIIFIDEVDALTGTRGEGESEASRRIKTELLVQMNGVGNDSQGVLVLGATNIPWQLDSAIRRRFERRIYIPLPDLAARTTMFEINVGDTPCVLTKEDYRTLGAMTEGYSGSDIAVVVKDALMQPIRKIQSATHFKDVSTEDDETRKLTPCSPGDDGAIEMSWTDIEADELKEPDLTIKDFLKAIKSTRPTVNEDDLLKQEQFTRDFGQEGN
6: [1] | [2] | [3] | [4] | [5] | [6]
